{"source": "patent US20160139137", "key": {"[1]": {"test_system": "T1, In-active peptide (NH2-Cys-Lys-Pro-Val-Lys-TAMRA, SEC ID NO: 3)", "T1 sequence": "CKPVK"}, "[2]": {"test_system": "T2, Pro-active peptide (NH2-Cys-Lys-Arg-Val-Lys-TAMRA, SEQ ID NO: 2)", "T2 sequence": "CKRVK"}}, "data": [{"substance": "Trypsin (13.000-20.000 units/mg)", "values": [{"measurement": "fluorescence emission spectra of the one-colour QD540@SiO2 system after incubation with trypsin", "setting": "[1]", "result": "the control sample with the “in-active” QD540@SiO2 system, as expected, did not show any significant change in the fluorescence emission"}, {"measurement": "fluorescence emission of QD660@SiO2@QD540@SiO2 nanoparticles at 25 µg/L versus 350 µg/L trypsin", "setting": "[2]", "result": "Increasing the enzyme concentration led to faster recovery of the original emission at 540 nm"}, {"measurement": "fluorescence emission spectra of the one-colour QD540@SiO2 system after incubation with trypsin (loss of FRET on peptide cleavage)", "setting": "[2]", "result": "The spectroscopic profiles further demonstrated the existence of FRET processes between the QD540@SiO2 nanospheres and the “pro-active” TAMRA-labelled peptide"}, {"measurement": "ratio of PL emission peaks I540/I660 during enzymatic digestion for 120 minutes at 25-350 µg/L trypsin", "setting": "[2]", "result": "There was a direct relationship between the enzymatic digestion rate and the enzyme concentration"}]}]}
